This assay addresses AAV8 capsid (adeno-associated virus serotype 8) (adeno-associated virus 8, UniProt Q8JQF8). Briefly: cryo-EM structure.

B1: AAVX nanobody (CaptureSelect Biotin Anti-AAVX Conjugate; ligand of the POROS CaptureSelect AAVX affinity resin) (VHH)
VHH: QVQIQESGGGIVQAGGSLRLSCAASGRTHGMYAMGWFRQAPGKEREFVAVQDITASNTHYSSAVKGRFTLSRDNAKNTAYLQMNNLKPEDTAVYYCAAGPTLMSGSYNSARDYDYWGQGTQVTVSS
In the case of B1, the stoichiometry N (usually the number of molecules, sites or subunits per partner or assembly) was determined as 2 nanobodies per 5-fold.

These data come from publication PMC11638594 (Molecular Therapy. Methods & Clinical Development, 2024).
